For one molecule, Kd results are on record in article PMC10644352, “Bromodomain Factor 5 as a Target for Antileishmanial Drug Discovery” (ACS Infectious Diseases, 2023).

No end group written: not given here.

For orientation: Kd means the free concentration of one partner at which half of the binding sites on the other are occupied at equilibrium, for simple one-to-one binding.

Test [1] has as its target T1, Leishmania donovani bromodomain factor 5 (LdBDF5) second bromodomain, recombinant BD5.2 (Leishmania donovani).
T1 construct: L. donovani BDF5 (LDBPK_091320), construct with the second bromodomain; His-tags were not cleaved for BD5.2; Expected mass 17.9 kDa; Monomer by SEC-MALLS; also called LdBDF5 BD5.2; source: E. coli Rosetta2 (DE3) pLysS, purified (IMAC, SEC)
Kind of test: fluorescence polarisation; 800 nM 5-FAM peptide, protein 0-300 μM; 20 mM HEPES, 500 mM NaCl, 1 mg/mL BSA, pH 7.5; 30 min at room temperature; one-site-specific binding fit (two-site for BD5T); n = 3. The conditions noted are these: both partners purified. On the technique in general: In fluorescence polarisation assays a small probe gives low polarisation when free and higher when bound to something large.

Test [2] addresses T2, Leishmania donovani bromodomain factor 5 (LdBDF5) first bromodomain, recombinant BD5.1 (Leishmania donovani).
T2 construct: L. donovani BDF5 (LDBPK_091320), construct with the first bromodomain; Plasmid from the Structural Genomics Consortium, pET-15-MHL backbone (Addgene plasmid #26092), which encodes a cleavable His-tag; His-tags were not cleaved for BD5.1; Expected mass 15.2 kDa; Monomer by SEC-MALLS; also called LdBDF5 BD5.1; LdBDF5.1; source: E. coli Rosetta2 (DE3) pLysS, purified (IMAC, SEC)
The description is as above. As to conditions: both partners purified.

Regarding AK(Ac)GK(Ac)RSADAK(Ac)SSQK(Ac)R (also: 5-FAM at N-terminus or via ethylene diamine linker at C-terminus) [5-FAM-labeled H4(1-15)K2Ac K4Ac K10Ac K14Ac peptide of L. donovani histone H4], the dissociation constant (Kd) stood at 353 µM in test [1] and 137 µM in test [2].
